Results published in patent publication US20030207290A1 (MESO SCALE TECHNOLOGIES, published 2003).
Where no end group is shown, it is not given here. [ ]: non-standard residue; d: D form. pS = N[C@@H](COP(=O)(O)O)C(=O)O

T1: EGFR-pY992 phosphopeptide, DADE(p)YLIPQQGFFSSPSTSC (phosphotyrosine at (p)Y (residue 5 of the printed peptide; EGFR Tyr992))
T1 construct: also called EGFR-pTyr992
T1 peptide: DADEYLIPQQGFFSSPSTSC

B1: Shc1 (EST clone IMAGE 3907115), in vitro translated, biotin-labelled (other, UniProt P29353-2 1-473, looked up)
chain: MNKLSGGGGRRTRVEGGQLGGEEWTRHGSFVNKPTRGWLHPNDKVMGPGVSYLVRYMGCVEVLQSMRALDFNTRTQVTREAISLVCEAVPGAKGATRRRKPCSRPLSSILGRSNLKFAGMPITLTVSTSSLNLMAADCKQIIANHHMQSISFASGGDPDTAEYVAYVAKDPVNQRACHILECPEGLAQDVISTIGQAFELRFKQYLRNPPKLVTPHDRMAGFDGSAWDEEEEEPPDHQYYNDFPGKEPPLGGVVDMRLREGAAPGAARPTAPNAQTPSHLGATLPVGQPVGGDPEVRKQMPPPPPCPGRELFDDPSYVNVQNLDKARQAVGGAGPPNPAINGSAPRDLFDMKPFEDALRVPPPPQSVSMAEQLRGEPWFHGKLSRREAEALLQLNGDFLVRESTTTPGQYVLTGLQSGQPKHLLLVDPEGVVRTKDHRFESVSHLISYHMDNHLPIISAGSELCLQQPVERKL
modifications: biotin on some lysine residues (incorporated at random from biotin-Lys-tRNA)
B2: IkBa phosphopeptide (IkBa-24pp), LKKERLLDDRHD(p)SGLD(p)SMKDEEYC (peptide)
peptide: LKKERLLDDRHD[pS]GLD[pS]MKDEEYC
modifications: not fully specified (residue 24); also: C-terminal Cys coupled to maleimide-activated BSA
notes: Chemically synthesized; the peptide-BSA conjugate was deposited on the electrode; also called IkBa peptide; IkBa-24ppC
B3: Phospholipase C gamma 1 (PLCγ) (EST clone IMAGE 4419252), in vitro translated, biotin-labelled (enzyme, UniProt P19174 1-1290, looked up)
chain: MAGAASPCANGCGPGAPSDAEVLHLCRSLEVGTVMTLFYSKKSQRPERKTFQVKLETRQITWSRGADKIEGAIDIREIKEIRPGKTSRDFDRYQEDPAFRPDQSHCFVILYGMEFRLKTLSLQATSEDEVNMWIKGLTWLMEDTLQAPTPLQIERWLRKQFYSVDRNREDRISAKDLKNMLSQVNYRVPNMRFLRERLTDLEQRSGDITYGQFAQLYRSLMYSAQKTMDLPFLEASTLRAGERPELCRVSLPEFQQFLLDYQGELWAVDRLQVQEFMLSFLRDPLREIEEPYFFLDEFVTFLFSKENSVWNSQLDAVCPDTMNNPLSHYWISSSHNTYLTGDQFSSESSLEAYARCLRMGCRCIELDCWDGPDGMPVIYHGHTLTTKIKFSDVLHTIKEHAFVASEYPVILSIEDHCSIAQQRNMAQYFKKVLGDTLLTKPVEISADGLPSPNQLKRKILIKHKKLAEGSAYEEVPTSMMYSENDISNSIKNGILYLEDPVNHEWYPHYFVLTSSKIYYSEETSSDQGNEDEEEPKEVSSSTELHSNEKWFHGKLGAGRDGRHIAERLLTEYCIETGAPDGSFLVRESETFVGDYTLSFWRNGKVQHCRIHSRQDAGTPKFFLTDNLVFDSLYDLITHYQQVPLRCNEFEMRLSEPVPQTNAHESKEWYHASLTRAQAEHMLMRVPRDGAFLVRKRNEPNSYAISFRAEGKIKHCRVQQEGQTVMLGNSEFDSLVDLISYYEKHPLYRKMKLRYPINEEALEKIGTAEPDYGALYEGRNPGFYVEANPMPTFKCAVKALFDYKAQREDELTFIKSAIIQNVEKQEGGWWRGDYGGKKQLWFPSNYVEEMVNPVALEPEREHLDENSPLGDLLRGVLDVPACQIAIRPEGKNNRLFVFSISMASVAHWSLDVAADSQEELQDWVKKIREVAQTADARLTEGKIMERRKKIALELSELVVYCRPVPFDEEKIGTERACYRDMSSFPETKAEKYVNKAKGKKFLQYNRLQLSRIYPKGQRLDSSNYDPLPMWICGSQLVALNFQTPDKPMQMNQALFMTGRHCGYVLQPSTMRDEAFDPFDKSSLRGLEPCAISIEVLGARHLPKNGRGIVCPFVEIEVAGAEYDSTKQKTEFVVDNGLNPVWPAKPFHFQISNPEFAFLRFVVYEEDMFSDQNFLAQATFPVKGLKTGYRAVPLKNNYSEDLELASLLIKIDIFPAKENGDLSPFSGTSLRERGSDASGQLFHGRAREGSFESRYQQPFEDFRISQEHLADHFDSRERRAPRRTRVNGDNRL
modifications: biotin on some lysine residues (incorporated at random from biotin-Lys-tRNA)
notes: also called PLCg

Legend:
[1] = target: T2, c-Myc phosphopeptide (Myc-p58Tp62S), …(p)TPPL(p)SPSRRSGL (phosphothreonine and phosphoserine in P(p)TPPL(p)S (residues 15 and 19 of the printed peptide)); test: ECL plate binding assay: peptide-BSA on electrode, biotinylated TnT protein, Sulfo-TAG streptavidin
T2 construct: Chemically synthesized; control peptide; also called c-Myc peptide
Procedure: (§1) Also included were three other non specific EST clones as controls (Incyte, Palo alto, Calif.). […] Proteins were transferred into wells of the peptide-coated and BSA-blocked IPR plates. Sulfo-TAG labeled streptavidin (50 to 100 ng/well) was added to each well as the detection agent. […] The ECL signals were measured using an imaging plate reader (IPR).

[2] = target: B2; test: as above
Procedure: as §1

[3] = target: B3; test: ECL plate binding assay, peptide-BSA on electrode
[4] = target: B1; test: ECL plate binding assay, peptide-BSA on electrode
[5] = target: T1, EGFR-pY992 phosphopeptide, …; test: ECL 7-spot plate screen, peptide-BSA spot, biotinylated TnT protein, Ru-streptavidin; signal normalized in two steps
[6] = target: T1, EGFR-pY992 phosphopeptide, …; test: ECL 4-spot multi-array binding assay: peptide-BSA spot, biotinylated TnT protein, Sulfo-TAG streptavidin
[7] = target: B2; test: as above

T2 sequence (peptide, as listed by the source): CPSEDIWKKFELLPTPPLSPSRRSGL

Average ECL signal [1] [ECL signal] | Average ECL signal [2] [ECL signal] | normalized ECL signal [5] | ECL signal [6] [ECL signal] | Binder | other results
341 | 368 |  |  | B1 | 
 |  |  |  | B2 | binding result [3]: no binding; binding result [4]: no binding
 |  | 1 | 54 | βTRCP1 (EST clone IMAGE 3491843), in vitro translated, biotin-labelled (other, human, UniProt Q9Y297 1-605, looked up, biotin on some lysine residues (incorporated at random from biotin-Lys-tRNA), Product of a coupled transcription/translation reaction, used without purification; the text speaks of the genes in the human genome and of full-length cDNAs; also called βTRCP [c]; bTRCP1) MDPAEAVLQEKALKFMCSMPRSLWLGCSSLADSMPSLRCLYNPGTGALTAFQNSSEREDCNNGEPPRKIIPEKNSLRQTYNSCARLCLNQETVCLASTAMKTENCVAKTKLANGTSSMIVPKQRKLSASYEKEKELCVKYFEQWSESDQVEFVEHLISQMCHYQHGHINSYLKPMLQRDFITALPARGLDHIAENILSYLDAKSLCAAELVCKEWYRVTSDGMLWKKLIERMVRTDSLWRGLAERRGWGQYLFKNKPPDGNAPPNSFYRALYPKIIQDIETIESNWRCGRHSLQRIHCRSETSKGVYCLQYDDQKIVSGLRDNTIKIWDKNTLECKRILTGHTGSVLCLQYDERVIITGSSDSTVRVWDVNTGEMLNTLIHHCEAVLHLRFNNGMMVTCSKDRSIAVWDMASPTDITLRRVLVGHRAAVNVVDFDDKYIVSASGDRTIKVWNTSTCEFVRTLNGHKRGIACLQYRDRLVVSGSSDNTIRLWDIECGACLRVLEGHEELVRCIRFDNKRIVSGAYDGKIKVWDLVAALDPRAPAGTLCLRTLVEHSGRVFRLQFDEFQIVSSSHDDTILIWDFLNDPAAQAEPPRSPSRTYTYISR | 
316 | 341 |  |  | B3 | ECL signal [7]: 26 ECL signal
 |  | 1 | 60 | βTRCP2 (EST clone IMAGE 4237375), in vitro translated, biotin-labelled (other, human, UniProt Q9UKB1 1-542, looked up, biotin on some lysine residues (incorporated at random from biotin-Lys-tRNA), Product of a coupled transcription/translation reaction, used without purification; also called βTRCP [c]; bTRCP2) MEPDSVIEDKTIELMCSVPRSLWLGCANLVESMCALSCLQSMPSVRCLQISNGTSSVIVSRKRPSEGNYQKEKDLCIKYFDQWSESDQVEFVEHLISRMCHYQHGHINSYLKPMLQRDFITALPEQGLDHIAENILSYLDARSLCAAELVCKEWQRVISEGMLWKKLIERMVRTDPLWKGLSERRGWDQYLFKNRPTDGPPNSFYRSLYPKIIQDIETIESNWRCGRHNLQRIQCRSENSKGVYCLQYDDEKIISGLRDNSIKIWDKTSLECLKVLTGHTGSVLCLQYDERVIVTGSSDSTVRVWDVNTGEVLNTLIHHNEAVLHLRFSNGLMVTCSKDRSIAVWDMASATDITLRRVLVGHRAAVNVVDFDDKYIVSASGDRTIKVWSTSTCEFVRTLNGHKRGIACLQYRDRLVVSGSSDNTIRLWDIECGACLRVLEGHEELVRCIRFDNKRIVSGAYDGKIKVWDLQAALDPRAPASTLCLRTLVEHSGRVFRLQFDEFQIISSSHDDTILIWDFLNVPPSAQNETRSPSRTYTYISR | 
